Columns and labels:
[1] = Stability assay (7 days at 4° C. or 37° C.; ELISA and gel filtration); format: physicochemical; conditions: after 7 days at 37° C.; gel filtration; FIG. 34B
Method: FIG. 34—A. Binding of purified antibodies incubated 7 days at 4° C. or 37° C. on human ChemR23 ELISA assay. B. SEC profile by gel filtration chromatography of purified antibodies incubated 7 days at 37° C. Each purified humanized anti-ChemR23 antibody (HALA, HDLD, HD-LDT52S, HEF-LDT52S, HEF-LEF) were incubated for 7 days at 4° C. or 37° C. After 7 days, the binding of purified antibodies was analyzed by ELISA assay and the aggregate formation was analyzed by gel filtration (Superdex 200 10/300GL, GeHealthcare).
Each purified humanized anti-ChemR23 antibody (HALA, HDLD, HD-LDT52S, HEF-LDT52S, HEF-LEF) were incubated for 7 days at 4° C. or 37° C. After 7 days, the binding of purified antibodies was analyzed by ELISA assay and the aggregate formation was analyzed by gel filtration (Superdex 200 10/300GL, GeHealthcare).

[2] = biological target: T1, Biot-C7 peptide (human ChemR23 peptide, SEQ ID No. 60) (Homo sapiens, UniProt Q99788); experiment: activity ELISA assay, binding of biotinylated C7 peptide; conditions: compared to wild-type 2G1; FIG. 23, FIG. 33
T1 construct: purchased synpeptide; host or cells: chemical synthesis
T1 sequence (Q99788 275-307 limits assumed): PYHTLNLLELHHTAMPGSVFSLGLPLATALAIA
Excerpt: FIG. 23. Binding recognition of C7 peptide by humanized anti-CMKLR1 derived from 2G1. Binding of C7biot in the supernatant of CHO cells transfected with different combinations of heavy and light chains (VHWT+VLWT: combination of SEQ ID No. 37 and SEQ ID No. 49; HCLC: combination of SEQ ID No. 42 and SEQ ID No.52; HDLC: combination of SEQ ID No. 43 and SEQ ID No.52; HCLD: combination of SEQ ID No. 42 and SEQ ID No.53; HDLD: combination of SEQ ID No. 43 and SEQ ID No.53).
FIG. 24. ED50 of anti-CMKLR1 derived from 2G1 antibody. 2G1 wt: HALA: combination of SEQ ID No. 41 and SEQ ID No. 50; combination of SEQ ID No. 37 and SEQ ID No. 49; HCLC: combination of SEQ ID No. 42 and SEQ ID No.52; HDLC: combination of SEQ ID No. 43 and SEQ ID No.52; HCLD: combination of SEQ ID No. 42 and SEQ ID No.53; HDLD: combination of SEQ ID No. 43 and SEQ ID No.53.
FIG. 33—Binding of purified antibodies on human ChemR23 peptide by ELISA assay (A), with ED50 concentration (ng/ml) (B). For activity ELISA assay, donkey anti-human IgG, Fc specific (Jackson Immunoresearch; USA; reference 709-005-098) was immobilized on plastic at 1.3 μg/ml in borate buffer (pH9) and purified antibody was added to measure binding in BSA1% buffer, compared to wild-type 2G1.
For activity ELISA assay, donkey anti-human IgG, Fc specific (Jackson Immunoresearch; USA; reference 709-005-098) was immobilized on plastic at 1.3 μg/ml in borate buffer (pH9) and purified antibody were added to measure binding in BSA1% buffer, compared to wild-type 2G1.
For activity ELISA assay, donkey anti-human IgG, Fc specific (Jackson Immunoresearch; USA; reference 709-005-098) was immobilized on plastic at 1.3 μg/ml in borate buffer (pH9) and purified antibody was added to measure binding in BSA1% buffer, compared to wild-type 2G1.

[3] = test system: PMN from healthy volunteers; experiment: Percentage of dead PMN (mortality of neutrophils) on coated antibodies; format: cell-based, human; conditions: coated Ab at 10 μg/mL, 24 h; FIG. 26, FIG. 36
Method: […] Mortality of PMN was analyzed by incubating PMN with specific markers of the mortality and viability and then counted by picture analysis.
FIG. 36—Increase of dead PMN neutrophils in vitro with anti-ChemR23 antibodies coated. PMN from healthy volunteers were incubated in culture medium with coated HEF-LDT52S, HEF-LEF and HDLD antibody variants at 10 μg/mL for 24 h and stained either with a dead/viability kit (LIVE/DEAD (Invitrogen)). The percentages of positive cells were obtained by analyzing the pictures with Fiji software. Isotype control was added as control.
PMN from healthy volunteers were incubated in culture medium with coated Ab at 10 μg/mL for 24 h or 5 h and stained either with a dead/viability kit (LIVE/DEAD (Invitrogen)) or a specific marker of reactive oxygen species (ROS) respectively. The percentages of positive cells were obtained by analyzing the pictures with ImageJ software.
PMN from healthy volunteers were incubated in culture medium with coated HEF-LDT52S, HEF-LEF and HDLD antibody variants at 10 μg/mL for 24 h and stained either with a dead/viability kit (LIVE/DEAD (Invitrogen)). The percentages of positive cells were obtained by analyzing the pictures with Fiji software. Isotype control was added as control.

[4] = test system: CCR7 expression at the surface of pro-inflammatory macrophages M1; experiment: CCR7 expression on M1 macrophages with coated antibodies; format: cell-based, human; conditions: antibody coated on plate, 48 h, flow cytometry; vs isotype control; FIG. 25, FIG. 35
Method: FIG. 25. Inhibition of CCR7 expression on M1 macrophages cells in vitro with anti-ChemR23 antibodies coated. 2G1 and all humanized 2G1 variants (HALA, HCLC, HCLD, HDLC and HDLD) were immobilized on plate. Isotype control were added as controls. Two isotypes which prevent FcRγ binding, i.e., 2G1-N297A (2G1 wt mutated in N297A to reduce FcγR binding), and 2G4 (wt with isotype IgG4mutated in S228P to stabilise hinge region) were also added. Pro-inflammatory macrophages M1 were added on coated plate for 48 h, and CCR7 expression at the surface of the macrophages was measured by flow cytometry.
FIG. 35—Inhibition of CCR7 expression on M1 macrophages cells in vitro with anti-ChemR23 antibody coated. The humanized 2G1 variant HEF-LD-T52S was immobilized on plate. Isotype control were added as controls. Pro-inflammatory macrophages M1 were added on coated plate, and CCR7 expression at the surface of the macrophages was measured by flow cytometry.
MATERIAL AND METHODS. […]
RESULTS. […] Pro-inflammatory macrophages M1 were added on coated plate for 48 h, and CCR7 expression at the surface of the macrophages was measured by flow cytometry.
The humanized 2G1 variant HEF-LD-T52S was immobilized on plate. […] Pro-inflammatory macrophages M1 were added on coated plate for 48 h, and CCR7 expression at the surface of the macrophages was measured by flow cytometry. […]

B1: HDLD: humanized 2G1 variant: combination of SEQ ID No. 43 and SEQ ID No. 53 (antibody, V domains shown)
VH: EVQLVESGGGLVQPGGSLRLSCAASGFTFSSYAMSWVRQAPGKGLELVATINRYGGSTYYAASVKGRFTISRDNSKNTLYLQMNSLRAEDTAVYYCPKLIYYGNEGDSWGQGTLVTVSS
VL: AIQLTQSPSSLSASVGDRVTITCRASQSVSFLHWYQQKPGKAPKRWIYDATKLTSGVPSRFSGSGSGTDFTLTISSLQPEDFATYYCQQWQSKPPLTFGGGTKVEIK
[1]
  percentage of aggregate: did not change
[2]
  binding activity to antigen-specific peptides (C7 peptide): even better than the germline antibody HALA and the wild type antibody 2G1
[3]
  mortality of PMN (percentage of dead PMN): accelerate the death of PMN

B2: HEF-LDT52S: humanized 2G1 variant optimized to reduce immunogenicity: HEF (SEQ ID NO: 91) with LD-T52S (SEQ ID No. 93) (antibody, V domains shown)
VH: EVQLVESGGGLVQPGGSLRLSCAASGFTFSSYAMSWVRQAPGKGLELVSTISGSGGSTYYAASVKGRFTISRDNSKNTLYLQMNSLRAEDTAVYYCPKLIYYGNEGDSWGQGTLVTVSS
VL: AIQLTQSPSSLSASVGDRVTITCRASQSVSFLHWYQQKPGKAPKRWIYDASKLTSGVPSRFSGSGSGTDFTLTISSLQPEDFATYYCQQWQSKPPLTFGGGTKVEIK
[1]
  percentage of aggregate: did not change
[2]
  binding activity to antigen-specific peptides (C7 peptide): high binding activity
[4]
  expression of CCR7 at the surface of pro-inflammatory macrophages (M1): able to decrease expression of CCR7
[3]
  mortality of PMN (percentage of dead PMN): accelerate the death of PMN

Reference: patent US12534533B2, “Anti-chemokine like receptor 1 humanized antibodies and their therapeutic applications” (OSE IMMUNOTHERAPEUTICS, priority 2019, dated 2026)
